According to publication PMC6382863:

How the values were obtained:
[1] = molecular target: Bunyamwera virus (BUNV) Gc head domain (aa 478–721) (Bunyamwera virus) (UniProt P04505); experiment: crystal structure
[2] = molecular target: La Crosse virus (LACV) Gc head domain (aa 477–722), tryptic fragment of the variable region (aa 477–911) (La Crosse virus) (UniProt Q8JPR1); experiment: crystal structure

Chain of Bunyamwera virus (BUNV) Gc head domain (aa 478–721) (P04505 478-721): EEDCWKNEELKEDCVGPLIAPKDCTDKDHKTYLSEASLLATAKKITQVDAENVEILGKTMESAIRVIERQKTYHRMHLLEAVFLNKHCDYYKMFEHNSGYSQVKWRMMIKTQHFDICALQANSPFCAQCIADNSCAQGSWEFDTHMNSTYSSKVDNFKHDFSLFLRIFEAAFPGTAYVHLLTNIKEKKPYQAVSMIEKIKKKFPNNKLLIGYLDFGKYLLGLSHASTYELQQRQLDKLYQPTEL
Chain of La Crosse virus (LACV) Gc head domain (aa 477–722), tryptic fragment of the variable region (aa 477–911) (Q8JPR1 477-722): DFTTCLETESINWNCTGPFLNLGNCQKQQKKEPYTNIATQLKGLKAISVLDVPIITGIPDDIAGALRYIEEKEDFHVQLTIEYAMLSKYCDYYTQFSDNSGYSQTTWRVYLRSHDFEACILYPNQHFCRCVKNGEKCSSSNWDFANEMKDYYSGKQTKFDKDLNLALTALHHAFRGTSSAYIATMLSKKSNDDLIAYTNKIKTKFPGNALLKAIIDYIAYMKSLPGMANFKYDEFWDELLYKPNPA

Substance | stoichiometry N [1] | stoichiometry N [2]
Bunyamwera virus (BUNV) Gc head domain (aa 478–721) (from UniProt P04505 478-721) (domain or fragment) | 3 | 
La Crosse virus (LACV) Gc head domain (aa 477–722), tryptic fragment of the variable region (aa 477–911) (from UniProt Q8JPR1 477-722) (domain or fragment) |  | 3
